The test system of assay [1] is M2 (A/Hong Kong/483/97) expressed on CHO cells. Format: binding, influenza A virus.
The test system of assay [2] is Influenza A (A/Puerto Rico/8/34) virus. The assay is classed as binding, influenza A virus H1N1.
Assay [3] has as its target T1, M2 protein on influenza A/Puerto Rico/8/34 (H1N1) virus particles (influenza A virus A/Puerto Rico/8/34 …, UniProt P06821 1-97). The assay is described as follows: FAb fragments on whole PR8 virus.
Assay [4] addresses T1, M2 protein on influenza A/Puerto …. The assay can be described thus: SPR, Fab on influenza virus (A/Puerto Rico/8/34).

B1: 3252_C13 (antibody, V domains shown)
VH: QVQLQESGPGLVKPSETLSLTCTVSGASISSDYWSWIRLPPGKGLEWIGYIYNRGSTKYTPSLKSRVTISLDTAENQFSLRLRSVTAADTAIYYCARHVGGHTYGIDYWGQGTLVTVSS
VL: DIQMTQSPSSLSASVGDRVTITCRASQSISNYLNWYQHKPGEAPKLLNYAASSLQSGVPSRFSASGSGTDFTLTISSLQPEDFATYYCQQSYNTPITFGQGTRLEIK
On to B1, for which the “FACS M2-HK MFI” value in assay [1] is 449.

B2: 3420_I23 (antibody, V domains shown)
VH: QVQLQESGPGLVKPSETLSVTCKVSGDSISSYSWSWIRQPPGKGLEWVGYLYYSGSTKYNPSLKSRTTISVDTSTNQLSLKLSFVTAADTAVYFCARTGSESTTGYGMDVWGQGTTVTVSS
VL: DIQMTQSPSSLSASVGDRVTITCRASQSISTYLNWYQQKPGKAPKLLIYAASSLHSGVPSRFSGSGSGTDFALTISSLQPEDFATYYCQQSYSPPITFGQGTRLEIK
For B2, the “FACS M2-HK MFI” value in assay [1] is recorded as 112.

B3: 3255_J06 (antibody, V domains shown)
VH: QVQLQESGPGLVKPSETLSLTCTVSGASISSDYWSWIRLPPGKGLEWIGYIYNRGSTKYTPSLKSRVTISLDTAENQFSLRLRSVTAADTAVYYCARHVGGHTYGIDYWGQGTLVTVSS
VL: DIQMTQSPSSLSASVGDRVTITCRASQSISNYLNWYQHKPGEAPKLLNYAASSLQSGVPSRFSASGSGTDFTLSISGLQPEDFATYYCQQSYNTPITFGPGTRLEIK
Consider B3, for which the “FACS M2-HK MFI” value in assay [1] is 442.

B4: 3362_B11 (antibody, V domains shown)
VH: QVQLQASGPGLVKPSETLSLTCTVSGDSITSGAYYWTWIRQHPGKGLEWIGYIYYSGNTYYNPSLKSRVTISLDTSKNQFSLKVNSVTAADTAVYYCARAASTSVLGYGMDVWGQGTTVTVSS
VL: DIQMTQSPSSLSASVGDRVTITCRASQSISRYLNWYQQEPGKAPKLLVYAASSLQSGVPSRFSGSGSGTDFTLTISSLQPEDFATYYCQQSYSTPLTFGQGTRLEIK
Turning to B4, the “FACS M2-HK MFI” value in assay [1] stood at 218. Also, the “Virus ELISA OD A450” value in assay [2] stood at 1.83.

B5: 3139_P23 (antibody, V domains shown)
VH: QVQLQESGPRLVKPSESLSLTCTVSGGSISNSFWGWIRQPPGEGLEWIGYVYNSGNTKYNPSLKSRVTISRDTSKSQLYMKLRSVTAADTAVYYCARHDDASHGYSISWGHGTLVTVSS
VL: DIQMTQSPSSLSASVGDRVTITCRASQTISTYLNWYQQKSGKAPKLLIYAASGLQSGVPSRFSGSGSGTDFTLTISSLQPEDFATYFCQQSYNTPLTFGQGTKVEIK
For the molecule B5, the “FACS M2-HK MFI” value in assay [1] was 110. For the same molecule, in assay [2], the “Virus ELISA OD A450” value was 1.02.

B6: 3136_G05 (antibody, V domains shown)
VH: QVQLQESGPGLVKPSETLSLTCSVSGGSISSDFWSWIRQPPGKGLEWIGYVYNRGSTKYSPSLKSRVTISADMSKNQFSLNMSSVTAADTAVYYCAKNGRSSTSWGIDVWGKGTTVTVSS
VL: DIQMTQSPSSLSASVGDRLTITCRASQSISTYLHWYQQKPGKAPKLLIYAASSLQSGVPSRFSGSRSGTDFTLTISSLQPDDFATYYCQQSYSPPLTFGPGTKVDMK
As for B6, the “FACS M2-HK MFI” value in assay [1] was determined as 109.

B7: 3241_G23 (antibody, V domains shown)
VH: QVQLQQSGPGLVKPSQTLSLTCTVSGGPVSGGGYSWNWIRQRPGQGLEWVGFMFHSGSPRYNPTLKSRITISVDTSKNLVSLKLSSVTAADTAVYFCARVGQMDKYYAMDVWGQGTTVTVSS
VL: DIQMTQSPSSLSSSVGDRVTITCRASQSIGAYVNWYQQKAGKAPQVLIFGASNLQSGVPSRFSGSGSGTDFTLTISSLQPEDFATYFCQQTYSTPITFGQGTRLEIK
On to B7, for which the “FACS M2-HK MFI” value in assay [1] turned out to be 1697. In addition, the “Virus ELISA OD A450” value in assay [2] was 3.02.

B8: 3259_J21 (antibody, V domains shown)
VH: QVQLQESGPRVVRPSETLSLTCTVSGGSISSYNWIWIRQPPGKGLEWIGHIYDYGRTFYNSSLQSRPTISVDASKNQLSLRLTSVTASDTAVYYCARPLGILHYYAMDLWGQGTTVTVSS
VL: DIQMTQSPLSVSVSVGDRVTIACRASQSIDKFLNWYQQKPGKAPKLLIYGASNLHSGAPSRFSASGSGTDFTLTITNIQTEDFATYLCQQSFSVPAFGGGTKVEIK
Regarding B8, in assay [1], the “FACS M2-HK MFI” value was determined as 1673. In addition, the “Virus ELISA OD A450” value in assay [2] was determined as 2.40.

B9: TCN-032 Fab (Fab, V domains shown)
VH: QVQLQESGPGLVKPSETLSLTCTVSGSSISNYYWSWIRQSPGKGLEWIGFIYYGGNTKYNPSLKSRVTISQDTSKSQVSLTMSSVTAAESAVYFCARASCSGGYCILDYWGQGTLVTVS
VL: DIQMTQSPSSLSASVGDRVTITCRASQNIYKYLNWYQQRPGKAPKGLISAASGLQSGVPSRFSGSGSGTDFTLTITSLQPEDFATYYCQQSYSPPLTFGGGTRVEIK
A word on the Kd: it is the concentration at which binding is half-saturated. Higher therefore signals weaker binding. In general, koff refers to the rate constant with which the complex falls apart. In general, kon refers to the rate constant with which the complex forms. A higher kon goes with fast association. Turning to B9, in assay [3], the Kd worked out at 3 nM, the koff was found to be 0.0023 s⁻¹ and the kon amounted to 740000 M⁻¹ s⁻¹. In assay [4], the Kd was determined as 3.2 nM, the off-rate (koff) is 0.0023 s⁻¹ and the on-rate constant (kon) was determined as 740000 M⁻¹ s⁻¹.

B10: 3260_D19 (antibody, V domains shown)
VH: DMQLVESGGGLVPPGGSLRLSCAASGFSVSDNYINWVRQAPGKGLDWVSVFYSADRTSYADSVKGRFTVSSHDSKNTVYLQMNSLRAEDTAVYYCARVQKSYYGMDVWGQGTTVTVSS
VL: GIQMTQSPSSLSASVGDRVTITCRASQSISRYLNWYLQKPGKAPKLLISGASSLQSGVPSRFSGTGSGTEFTLTISSLQPEDFATYYCQQTFSIPLFGQGTKVEIK
Consider B10, for which, in assay [1], the “FACS M2-HK MFI” value is 846. In assay [2], the “Virus ELISA OD A450” value is reported as 2.46.

B11: 3242_P05 (antibody, V domains shown)
VH: DMQLVESGGGLVPPGGSLRLSCAASGFSVSDNYINWVRQAPGKGLDWVSVFYSADRTSYADSVKGRFTVSSHDSKNTVYLQMNSLRAEDTAVYYCARVQKSYYGMDVWGQGTTVTVSS
VL: GIQMTQSPSSLSASVGDRVTITCRASQSISRYLNWYLQKPGKAPKLLISGASSLQSGVPSRFSGTGSGTEFTLTISSLQPEDFATYYCQQTFSIPLFGQGTKVEIK
On to B11, for which the “FACS M2-HK MFI” value in assay [1] worked out at 596. Also, the “Virus ELISA OD A450” value in assay [2] stood at 0.50.

B12: TCN-031 Fab (Fab, V domains shown)
VH: EVQLVESGGGLVQPGGSLRISCAASGFTVSSNYMSWVRQAPGKGLEWVSVIYSGGSTYYADSVKGRFSFSRDNSKNTVFLQMNSLRAEDTAVYYCARCLSRMRGYGLDVWGQGTTVTVS
VL: DIQMTQSPSSLSASVGDRVTITCRTSQSISSYLNWYQQKPGKAPKLLIYAASSLQSGVPSRFSGSGSGTDFTLTISGLQPEDFATYYCQQSYSMPAFGQGTKLEIK
As for B12, in assay [3], binding was characterised by a dissociation constant (Kd) of 14 nM, the off-rate (koff) came out at 0.014 s⁻¹ and the kon came to 1e+06 M⁻¹ s⁻¹. For the same molecule, in assay [4], the Kd was found to be 14 nM, the koff came to 0.014 s⁻¹ and the kon is 1e+06 M⁻¹ s⁻¹.

B13: 3248_P18 (antibody, V domains shown)
VH: QVQLQESGPGLVKPSETLSLTCTVSGGSISAYHWSWIRQPPGKGLEWIGHIFDSGSTYYNPSLKSRVTISLDASKNQLSLRLTSVTASDTAIYYCARPLGSRYYYGMDVWGQGTTVTVSS
VL: DIQMTQSPSSLSASVGDRVTITCRASQSISRYLNWYQQKPGKAPKLLIYGASTLQNGAPSRFSGSGSGTDFTLTISSLQPEDSATYLCQQSYSVPAFGGGTKVEVK
In the case of B13, in assay [1], the “FACS M2-HK MFI” value stood at 967. The “Virus ELISA OD A450” value in assay [2] is on record as 0.56.

B14: 3245_O19 (antibody, V domains shown)
VH: EVQLVESGGGLVQPGGSLRLSCTASGLSVSSTYMNWVRQAPGKGLEWVSVFYSETRTYYADSVKGRFTVSRHNSNNTLYLQMNSLRVEDTAVYYCARVQRLSYGMDVWGQGTTVTVSS
VL: DIQMTQSPSSLSASVGDRVTITCRASQSISTYLNWYQKRPGKAPKLLVYGASTLQSGVPSRFSGSGSGTDFTLTIASLQPEDSATYYCQQTYSIPLFGQGTRLEIK
B14: the “FACS M2-HK MFI” value in assay [1] was found to be 919. In assay [2], the “Virus ELISA OD A450” value stood at 3.51.

B15: 3244_H04 (antibody, V domains shown)
VH: EVQLVESGGGLVQPGGSLRLSCTASGLSVSSTYMNWVRQAPGKGLEWVSVFYSETRTYYADSVKGRFTVSRHNSNNTLYLQMNSLRAEDTAVYYCARVQRLSYGMDVWGQGTTVTVSS
VL: DIQMTQSPSSLSASVGDRVTITCRASQSISTYLNWYQKRPGKAPKLLVYGASSLQSGVPSRFSGSGSGTDFTLTIASLQPEDSAVYYCQQTYSIPLFGQGTRLEIK
B15: the “FACS M2-HK MFI” value in assay [1] amounted to 963. The “Virus ELISA OD A450” value in assay [2] was 3.31.

B16: 3253_P10 (antibody, V domains shown)
VH: QVQLQESGPGLLKPSDTLALTCTVSGGSITSDYWSWIRQPPGRGLDWIGFFYNGGSTKYNPSLKSRVTISADTSKNQLSLKLTSVTAADTGVYYCARHDAKFSGSYYVASWGQGTRVTVSS
VL: DIQMTQSPSSLSASVGDRVTISCRASQSISTYLNWYQQQPGKAPKVLISGATDLQSGVPSRFSGSGSGTDFTLTISSLQPEDFATYYCQQSYNTPLIFGQGTKLEIK
For the molecule B16, the “FACS M2-HK MFI” value in assay [1] was determined as 43. Also, in assay [2], the “Virus ELISA OD A450” value was determined as 0.50.

B17: 3243_J07 (antibody, V domains shown)
VH: QVQLQESGPGLLKPSDTLALTCTVSGGSITSDYWSWIRQPPGRGLDWIGFFYNGGSTKYNPSLKSRVTISADTSKNQLSLKLTSVTAADTGVYYCARHDVKFSGSYYVASWGQGTRVTVSS
VL: DIQMTQSPSSLSASVGDRVTISCRASQSISTYLNWYQQQPGKAPKVLISGATNLQSGVPSRFSGSGSGTDFTLTISSLQPEDFATYYCQQSYNTPLIFGQGTKLEIK
For B17, in assay [1], the “FACS M2-HK MFI” value worked out at 131. Further, the “Virus ELISA OD A450” value in assay [2] amounted to 2.94.

B18: 3244_I10 (antibody, V domains shown)
VH: QVQLQESGPGLLKPSDTLALTCTVSGGSITSDYWSWIRQPPGRGLDWIGFFYNGGSTKYNPSLKSRVTISADTSKNQLSLKLTSVTAADTGVYYCARHDAKFSGSYYVASWGQGTRVTVSS
VL: DIQMTQSPSSLSASVGDRVTISCRASQSISTYLNWYQQQPGKAPKVLIFGATNLQSGVPSRFSGSGSGTDFTLTISSLQPEDFATYYCQQSYNTPLIFGQGTKLEIK
Turning to B18, the “FACS M2-HK MFI” value in assay [1] is reported as 434. Further, in assay [2], the “Virus ELISA OD A450” value is reported as 3.01.

(Values after patent US20120315277A1, “Compositions and Methods for the Therapy and Diagnosis of Influenza” (priority 2011, published 2012).)
